Assay results reported in patent publication US20260219283A1.
Several values for one entry are separate records, joined by “and”; a condition that tells them apart may be missing. Equal entries are not always repeated.

Biological target: semi-synthetic pS129-α-synuclein (Proteos Inc.) (Homo sapiens (Human)) (UniProt P37840)
Test: sandwich ECLIA, freshly prepared pS129-α-syn standard at 100 ng/mL

ECLIA signal at 100 ng/mL standard: 500000 and 1.1e+06
Substance: anti-pS129-α-syn monoclonal antibody EP1536Y
